These results are taken from publication PMC5969902.

pKd: −log10 of the molar value. Where “and” joins values, the source holds several entries; their conditions need not be identical. Identical values can stand only once.

Experiment [1] has as its target actin filament barbed ends elongating from unlabeled rabbit skeletal muscle actin (rabbit) (UniProt P68135). Description: single-filament microfluidics with fluorescence microscopy; survival of formin-bound barbed ends, exponential fit; 1 µM unlabeled actin, 10 µM profilin; KCl and configuration not given.
Experiment [2] shares this target. Kind of experiment: single-filament microfluidics with fluorescence microscopy; survival of formin-bound barbed ends, exponential fit; 2 µM unlabeled actin, 5 µM profilin; KCl and configuration not given.
The target is the same in experiment [3]. Description: single-filament microfluidics with fluorescence microscopy; survival of formin-bound barbed ends, exponential fit; 1 µM unlabeled actin, no profilin; KCl and configuration not given.
For experiment [4] the target is unchanged. Kind of experiment: single-filament microfluidics with fluorescence microscopy; survival of formin-bound barbed ends, exponential fit; 3 µM unlabeled actin, 5 µM profilin; KCl and configuration not given.
Experiment [5] shares this target. Kind of experiment: single-filament microfluidics with fluorescence microscopy; survival of formin-bound barbed ends, exponential fit; 3 µM unlabeled actin, 10 µM profilin; KCl and configuration not given.
Experiment [6] shares this target. Description: single-filament microfluidics with fluorescence microscopy; survival of formin-bound barbed ends, exponential fit; 1 µM unlabeled actin, 5 µM profilin; KCl and configuration not given.
The target is the same in experiment [7]. Description: single-filament microfluidics with fluorescence microscopy; survival of formin-bound barbed ends, exponential fit; 2 µM unlabeled actin, 10 µM profilin; KCl and configuration not given.
Experiment [8] shares this target. Kind of experiment: single-filament microfluidics with fluorescence microscopy; survival of formin-bound barbed ends, exponential fit; 0.5 µM unlabeled actin, no profilin; KCl and configuration not given.
For another experiment, the target named is mDia1 FH1 (UniProt O08808). The conditions noted are these: cited from earlier work.

Chain of profilin (P07274 whole entry): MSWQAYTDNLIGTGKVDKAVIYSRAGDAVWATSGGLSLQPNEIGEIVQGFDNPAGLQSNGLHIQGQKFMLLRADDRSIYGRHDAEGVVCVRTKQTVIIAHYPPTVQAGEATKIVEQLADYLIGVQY

Usually koff stands for a measure of how fast the partners let go of each other. A lower koff goes with slow dissociation. For “mDia1(FH2-DAD) (from UniProt O08808 1-1255) (domain or fragment)”, the koff in [1] was 0.0025 s⁻¹ and 0.0036 s⁻¹; in experiment [2], 0.0042 s⁻¹; in [3] it was 0.0047 s⁻¹ and 0.0089 s⁻¹; in [4], 0.0063 s⁻¹ and 0.0085 s⁻¹; in experiment [5], 0.0064 s⁻¹; in [6], 0.0031 s⁻¹ and 0.0025 s⁻¹ and 0.0051 s⁻¹. Also, the koff was 0.00226 s⁻¹ in experiment [7] and 0.004 s⁻¹ in experiment [8].
As a reminder, the pKd is −log10 of the Kd, conventionally taken in molar units. For the substance profilin (from UniProt P07274), in the experiment with mDia1 FH1, the pKd is less than 4.00.
